# Test results published in PMC11584650, “An inhibitory segment within G-patch activators tunes Prp43-ATPase activity during ribosome assembly” (Nature Communications, 2024).
# Substrate: Nc1ncnc2c1ncn2[C@@H]1O[C@H](COP(=O)(O)OP(=O)(O)OP(=O)(O)O)[C@@H](O)[C@H]1O
# Assay: pyruvate kinase/lactate dehydrogenase coupled NADH assay, Michaelis-Menten fit
# Format: biochemical, Saccharomyces cerevisiae
# Conditions: no RNA, 20 mM MgCl2, 50 mM Hepes pH 7.5, 200 mM KCl, room temperature, ATP up to 2.5 mM
# Text: pyruvate kinase/lactate dehydrogenase coupled NADH assay, Michaelis-Menten fit on Prp43 | We obtained kinetic parameters for the ATPase activities of Prp43, Prp43:Tma23^M and Ppr43:Pxr1^M complexes
protein,measurement,value
"Prp43 (Saccharomyces cerevisiae S288C) (protein, full-length His6-tagged Prp43, expressed in E. coli BL21(DE3)*, Ni-NTA and size exclusion) MGSKRRFSSEHPDPVETSIPEQAAEIAEELSKQHPLPSEEPLVHHDAGEFKGLQRHHTSAEEAQKLEDGKINPFTGREFTPKYVDILKIRRELPVHAQRDEFLKLYQNNQIMVFVGETGSGKTTQIPQFVLFDEMPHLENTQVACTQPRRVAAMSVAQRVAEEMDVKLGEEVGYSIRFENKTSNKTILKYMTDGMLLREAMEDHDLSRYSCIILDEAHERTLATDILMGLLKQVVKRRPDLKIIIMSATLDAEKFQRYFNDAPLLAVPGRTYPVELYYTPEFQRDYLDSAIRTVLQIHATEEAGDILLFLTGEDEIEDAVRKISLEGDQLVREEGCGPLSVYPLYGSLPPHQQQRIFEPAPESHNGRPGRKVVISTNIAETSLTIDGIVYVVDPGFSKQKVYNPRIRVESLLVSPISKASAQQRAGRAGRTRPGKCFRLYTEEAFQKELIEQSYPEILRSNLSSTVLELKKLGIDDLVHFDFMDPPAPETMMRALEELNYLACLDDEGNLTPLGRLASQFPLDPMLAVMLIGSFEFQCSQEILTIVAMLSVPNVFIRPTKDKKRADDAKNIFAHPDGDHITLLNVYHAFKSDEAYEYGIHKWCRDHYLNYRSLSAADNIRSQLERLMNRYNLELNTTDYESPKYFDNIRKALASGFFMQVAKKRSGAKGYITVKDNQDVLIHPSTVLGHDAEWVIYNEFVLTSKNYIRTVTSVRPEWLIEIAPAYYDLSNFQKGDVKLSLERIKEKVDRLNELKQGKNKKKSKHSKK",Km,19.04 ± 7.11 µM
same,kcat,0.0318 ± 0.0005 s⁻¹
